Measurements taken from publication PMC6534611.

Target: Ptch1 variant △893-899/T903A/K904A/Q905A/N1000Q (human) (UniProt Q13635)
Assay: not stated; Ptch1 variant alone or in complex with ShhNp; Supplementary Fig. 8c

stoichiometry N: 4
Substance: Ptch1 variant △893-899/T903A/K904A/Q905A/N1000Q (from UniProt Q13635 1-1305) (receptor)
